Measurements reported in article PMC3950718, “The RNA helicase RHAU (DHX36) suppresses expression of the transcription factor PITX1”.

Assays:
6xHis-RHAU53-105 [1] = biological target: T1, 6xHis-RHAU53-105 (UniProt Q9H2U1 53-105); assay: EMSA; RNA in 50 mM Tris pH 7.6, 100 mM KCl; EMSA as in ref 12/36 (150 nM RNA, 0-750 nM protein); pull-down binding buffer 50 mM Tris-acetate pH 7.8, 100 mM KCl, 10 mM NaCl, 3 mM MgCl2, 70 mM glycine, 10% glycerol, room temperature; conditions: protein: recombinant; tags: 6xHis; label: 5' biotin; no quadruplex (no NMM staining)
T1 sequence: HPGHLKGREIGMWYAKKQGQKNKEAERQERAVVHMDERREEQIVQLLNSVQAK

RHAU53-105 [2] = biological target: T2, RHAU53-105 (UniProt Q9H2U1 53-105); assay: EMSA; 150 nM RNA, 0-750 nM protein; RNA in 50 mM Tris pH 7.6, 100 mM KCl; EMSA as in ref 12/36 (150 nM RNA, 0-750 nM protein); pull-down binding buffer 50 mM Tris-acetate pH 7.8, 100 mM KCl, 10 mM NaCl, 3 mM MgCl2, 70 mM glycine, 10% glycerol, room temperature; conditions: protein: recombinant; label: 5' biotin; no quadruplex (no NMM staining)
T2 sequence: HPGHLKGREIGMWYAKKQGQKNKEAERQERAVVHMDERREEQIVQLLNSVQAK

RHAU (full length) = biological target: T3, RHAU (full length) (UniProt Q9H2U1 1-1008); assay: as above; conditions: protein: recombinant, label: 5' biotin
T3 sequence: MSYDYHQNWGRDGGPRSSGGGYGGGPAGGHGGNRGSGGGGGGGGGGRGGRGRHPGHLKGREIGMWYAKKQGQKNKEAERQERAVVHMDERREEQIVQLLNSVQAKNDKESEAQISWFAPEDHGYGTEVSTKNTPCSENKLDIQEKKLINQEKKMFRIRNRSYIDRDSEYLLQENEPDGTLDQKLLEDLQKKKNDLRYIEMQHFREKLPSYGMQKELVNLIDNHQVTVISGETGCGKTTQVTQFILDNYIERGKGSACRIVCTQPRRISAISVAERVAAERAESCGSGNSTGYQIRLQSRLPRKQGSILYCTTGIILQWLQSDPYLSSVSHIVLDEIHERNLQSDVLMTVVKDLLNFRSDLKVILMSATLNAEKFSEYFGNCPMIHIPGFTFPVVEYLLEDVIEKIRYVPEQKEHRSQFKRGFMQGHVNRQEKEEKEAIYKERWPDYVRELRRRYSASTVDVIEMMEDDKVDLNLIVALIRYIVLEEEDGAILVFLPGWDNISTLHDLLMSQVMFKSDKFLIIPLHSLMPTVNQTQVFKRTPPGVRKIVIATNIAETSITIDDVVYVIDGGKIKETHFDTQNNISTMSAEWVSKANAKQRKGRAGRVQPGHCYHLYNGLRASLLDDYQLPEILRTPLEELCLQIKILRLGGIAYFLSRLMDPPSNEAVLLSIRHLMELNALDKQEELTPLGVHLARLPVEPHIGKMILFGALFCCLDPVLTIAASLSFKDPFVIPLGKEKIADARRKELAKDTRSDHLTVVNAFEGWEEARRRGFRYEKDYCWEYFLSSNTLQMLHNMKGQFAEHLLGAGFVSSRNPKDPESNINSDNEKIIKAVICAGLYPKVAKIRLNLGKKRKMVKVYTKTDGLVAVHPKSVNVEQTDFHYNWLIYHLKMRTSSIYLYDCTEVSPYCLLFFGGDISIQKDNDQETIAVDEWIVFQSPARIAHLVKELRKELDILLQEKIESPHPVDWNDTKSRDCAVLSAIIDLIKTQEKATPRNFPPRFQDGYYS

RHAU53-105 [3] = biological target: T2, RHAU53-105; assay: EMSA; 150 nM RNA, 0-750 nM protein; qualitatively lower affinity than full length; RNA in 50 mM Tris pH 7.6, 100 mM KCl; EMSA as in ref 12/36 (150 nM RNA, 0-750 nM protein); pull-down binding buffer 50 mM Tris-acetate pH 7.8, 100 mM KCl, 10 mM NaCl, 3 mM MgCl2, 70 mM glycine, 10% glycerol, room temperature; conditions: protein: recombinant; label: 5' biotin; G-quadruplex
6xHis-RHAU53-105 [4] = biological target: T1, 6xHis-RHAU53-105; assay: EMSA; 150 nM RNA; affinity similar to untagged; RNA in 50 mM Tris pH 7.6, 100 mM KCl; EMSA as in ref 12/36 (150 nM RNA, 0-750 nM protein); pull-down binding buffer 50 mM Tris-acetate pH 7.8, 100 mM KCl, 10 mM NaCl, 3 mM MgCl2, 70 mM glycine, 10% glycerol, room temperature; conditions: protein: recombinant; tags: 6xHis; label: 5' biotin; G-quadruplex

GAGCGCGGAAGCGCGCGCGCGCGCGCGCGG (ssRNA) [PITX1 Q1Mut]
binding result (6xHis-RHAU53-105 [1]): no binding | binding result (RHAU53-105 [2]): no binding | binding result (RHAU (full length); no quadruplex (no NMM staining)): no binding

GUUGGGGCGGGCGUUGGGUUUGGGGGGACG (structured_RNA) [PITX1 Q2]
binding result (RHAU (full length); G-quadruplex): binds | binding result (RHAU53-105 [3]): binds

AGCGGGCAGUGCGGGCCUGGCGGGAGGUGGGGGAGG (structured_RNA) [PITX1 Q3]
binding result (RHAU (full length); G-quadruplex): binds | binding result (RHAU53-105 [3]): binds

GAGCGGGGAAGGGCGCGGGCGCGGGCGCGG (structured_RNA) [PITX1 Q1]
binding result (RHAU (full length); G-quadruplex): binds | binding result (6xHis-RHAU53-105 [4]): binds | binding result (RHAU53-105 [3]): binds
